Measured values as given in patent US20160207960A1 (FEINSTEIN INSTITUTE FOR MEDICAL RESEARCH, published 2016).

B1: Recombinant human (rh) CIRP (Accession #NP_001271; full length) with C-terminal DDK tag (ligand)
chain: MASDEGKLFVGGLSFDTNEQSLEQVFSKYGQISEVVVVKDRETQRSRGFGFVTFENIDDAKDAMMAMNGKSVDGRQIRVDQAGKSSDNRSRGYRGGSAGGRGFFRGGRGRGRGFSRGGGDRGYGGNRFESRSGGYGGSRDYYSSRSQSGGYSDRSSGGSYRDSYDSYATHNE
notes: Bought from Origene, expressed in HEK293 cells; also called recombinant human CIRP; human CIRP; not shown: C-terminal DDK tag
B5: rhMD2 (Accession #BAA78717; Glu17-Asn160) with 10-His tag at the C-terminus (receptor, human)
chain: EAQKQYWVCNSSDASISYTYCDKMQYPISINVNPCIELKRSKGLLHIFYIPRRDLKQLYFNLYITVNTMNLPKRKEVICRGSDDDYSFCRALKGETVNTTISFSFKGIKFSKGKYKCVVEAISGSPEEMLFCLEFVILHQPNSNHHHHHHHHHH
notes: range 17-160; From R&D Systems, expressed in E. coli; also called TLR4 co-receptor MD2

Key:
[1] = target: T1, rhTLR4 (Accession #O00206; Glu24-Lys631) with 10-His tag at the C-terminus (human, UniProt O00206 24-631); assay: SPR, BIAcore T200, kinetic analysis, 1:1 Langmuir fit; target rhTLR4
T1 construct: range 24-631; From R&D Systems, expressed in mouse myeloma NS0 cells
Method: (§1) Analysis of protein-protein and peptide-protein interactions were conducted using the BIAcore T200 instrument (GE Healthcare). Binding reactions were performed in 1×PBS buffer containing 0.01% Tween-20 (pH 7.4). The CM5 dextran chip (flow cell-2) was first activated by injection with 89 μl of 0.1 M […] and 0.1 M N-hydroxysuccinimide. An aliquot of 200 μl of 5 μg/ml of the ligand diluted in 10 mM sodium acetate (pH 4.5) was injected into flow cell-2 of the CM5 chip for immobilization. Next, 135 μl of 1 M ethanolamine (pH 8.2) was then injected to block the remaining active sites. The flow cell-1 without coating with the ligand was used as a control to evaluate nonspecific binding. The binding analyses were performed at flow rate of 30 μl/min at 25° C. […] The signal from the blank channel (flow cell-1) was subtracted from the channel (flow-cell 2) coated with the ligand. Data were analyzed by the BIAcore T200 Evaluation Software. For all samples, a blank injection with buffer alone was subtracted from the resulting reaction surface data. Data were globally fitted to the Lagmuir model for a 1:1 binding.
(§2) Surface plasmon resonance (SPR) analysis was utilized to determine the physical interaction and binding affinity between rhCIRP and pattern-recognition receptors and MD2.

[2] = target: T2, rhTLR4/MD2 complex (rhTLR4 Glu24-Lys631 co-expressed with rhMD2 Glu17-Asn160, His tag at each protein) (human, UniProt O00206 24-631; Q9Y6Y9 17-160); assay: SPR, BIAcore T200, kinetic analysis, 1:1 Langmuir fit; target rhTLR4/MD2 complex
T2 construct: range 24-631;range 17-160; Purified from NS0 cells co-expressing both proteins; R&D Systems; not shown: His tag; for the complex only 'His tag at each protein' is said (a general sentence gives a C-terminal 10-His tag for rh)
Method: as §1, §2

[3] = target: T3, rhRAGE (Accession #Q15109; Ala23-Ala344) with C-terminal 6-His tag (human, UniProt Q15109 23-344); assay: SPR (BIAcore T200), analyte rhRAGE over immobilized rhCIRP; apparent KD from kinetic analysis
T3 construct: range 23-344; From Biovision, expressed in HEK293 cells
Method: as §1, §2

[4] = target: T4, rhTLR2 (Accession #NP_003255; Glu21-Leu590) with 10-His tag at the C-terminus (human, UniProt O60603 21-590); assay: SPR (BIAcore T200), analyte rhTLR2 over immobilized rhCIRP; apparent KD from kinetic analysis
T4 construct: range 21-590; From R&D Systems, expressed in mouse myeloma NS0 cells
Method: as §1, §2

[5] = target: B5; assay: SPR, 15-mer oligopeptide as analyte over immobilized rhMD2
Method: as §1, §2

[6] = target: B1; assay: SPR, BIAcore T200, kinetic analysis, 1:1 Langmuir fit; target rhMD2
Method: as §1, §2

[7] = target: T1, rhTLR4 (Accession #O00206; …); assay: SPR, BIAcore T200, positive control; rhMD2 to rhTLR4, positive control
Method: as §1, §2

T1 sequence (O00206 other isoform, or with tags, fused parts or gaps limits assumed): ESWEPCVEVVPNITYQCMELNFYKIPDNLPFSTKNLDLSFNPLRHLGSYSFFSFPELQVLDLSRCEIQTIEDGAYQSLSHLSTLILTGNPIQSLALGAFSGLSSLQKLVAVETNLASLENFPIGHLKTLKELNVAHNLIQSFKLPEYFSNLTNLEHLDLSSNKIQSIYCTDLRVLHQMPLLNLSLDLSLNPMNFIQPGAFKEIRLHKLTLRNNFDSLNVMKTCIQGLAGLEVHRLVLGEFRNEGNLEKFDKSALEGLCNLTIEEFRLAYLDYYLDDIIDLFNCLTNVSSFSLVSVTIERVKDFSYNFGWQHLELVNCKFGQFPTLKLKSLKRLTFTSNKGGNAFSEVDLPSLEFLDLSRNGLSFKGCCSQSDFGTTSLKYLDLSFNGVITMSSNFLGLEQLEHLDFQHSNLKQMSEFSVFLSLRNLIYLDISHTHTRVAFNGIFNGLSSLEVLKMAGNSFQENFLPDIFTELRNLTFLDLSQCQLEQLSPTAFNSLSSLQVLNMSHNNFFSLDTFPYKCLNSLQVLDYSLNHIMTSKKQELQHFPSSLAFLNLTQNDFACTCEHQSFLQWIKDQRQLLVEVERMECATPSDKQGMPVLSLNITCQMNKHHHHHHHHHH
T2 sequence (O00206 24-631 limits assumed, form in doubt, one chain of several): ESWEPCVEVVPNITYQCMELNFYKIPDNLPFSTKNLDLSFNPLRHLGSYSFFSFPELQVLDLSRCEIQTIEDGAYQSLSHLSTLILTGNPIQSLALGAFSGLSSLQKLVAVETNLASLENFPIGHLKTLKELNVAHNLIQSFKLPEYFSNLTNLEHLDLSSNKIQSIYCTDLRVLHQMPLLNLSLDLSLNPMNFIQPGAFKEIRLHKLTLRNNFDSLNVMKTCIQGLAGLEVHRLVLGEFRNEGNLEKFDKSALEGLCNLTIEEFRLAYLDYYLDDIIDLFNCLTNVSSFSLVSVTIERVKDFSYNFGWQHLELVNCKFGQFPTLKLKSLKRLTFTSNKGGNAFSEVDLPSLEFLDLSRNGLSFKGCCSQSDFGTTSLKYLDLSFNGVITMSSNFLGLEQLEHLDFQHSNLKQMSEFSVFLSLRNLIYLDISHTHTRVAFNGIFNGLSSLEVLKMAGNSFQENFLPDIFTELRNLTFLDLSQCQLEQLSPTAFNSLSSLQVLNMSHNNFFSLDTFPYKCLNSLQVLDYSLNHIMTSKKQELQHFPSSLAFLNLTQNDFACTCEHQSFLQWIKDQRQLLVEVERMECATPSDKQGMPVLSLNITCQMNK
T3 sequence (Q15109 other isoform, or with tags, fused parts or gaps limits assumed): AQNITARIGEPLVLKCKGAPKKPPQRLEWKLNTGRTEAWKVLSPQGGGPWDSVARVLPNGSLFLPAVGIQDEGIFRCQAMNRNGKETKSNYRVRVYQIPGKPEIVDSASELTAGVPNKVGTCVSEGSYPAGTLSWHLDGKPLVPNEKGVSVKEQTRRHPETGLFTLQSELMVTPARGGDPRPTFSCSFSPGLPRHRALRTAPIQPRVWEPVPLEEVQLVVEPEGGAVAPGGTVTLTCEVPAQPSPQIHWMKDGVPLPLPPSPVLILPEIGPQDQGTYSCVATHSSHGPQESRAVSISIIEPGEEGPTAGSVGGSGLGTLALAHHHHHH
T4 sequence (O60603 other isoform, or with tags, fused parts or gaps limits assumed): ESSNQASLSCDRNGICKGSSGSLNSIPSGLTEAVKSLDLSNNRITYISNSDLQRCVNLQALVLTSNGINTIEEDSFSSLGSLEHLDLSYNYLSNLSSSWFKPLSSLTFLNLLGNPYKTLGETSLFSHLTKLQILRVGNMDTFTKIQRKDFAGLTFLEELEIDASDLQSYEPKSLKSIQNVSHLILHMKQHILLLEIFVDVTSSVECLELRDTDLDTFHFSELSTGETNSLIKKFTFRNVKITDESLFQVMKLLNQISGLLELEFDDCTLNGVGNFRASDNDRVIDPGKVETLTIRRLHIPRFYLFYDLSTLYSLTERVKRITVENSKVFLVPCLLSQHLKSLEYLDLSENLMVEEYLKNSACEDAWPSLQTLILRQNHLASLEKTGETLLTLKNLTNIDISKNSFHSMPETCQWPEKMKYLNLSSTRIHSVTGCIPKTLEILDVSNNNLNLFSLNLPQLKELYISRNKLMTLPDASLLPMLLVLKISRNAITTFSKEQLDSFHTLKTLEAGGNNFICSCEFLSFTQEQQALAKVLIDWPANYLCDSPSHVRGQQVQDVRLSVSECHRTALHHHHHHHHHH

B1
Kd [1]: 617 nM
Kd [2]: 239 nM
Kd [3]: 33.1 nM
Kd [4]: 258 nM

B2: human CIRP 15-mer oligopeptide aa 101-115 (peptide)
peptide: RGFFRGGRGRGRGFS
Kd [5]: 1510 nM

B3: CIRP-derived oligopeptide C22 (human CIRP aa 106-120) (peptide)
peptide: GGRGRGRGFSRGGGD
notes: Synthetic, Genscript
Kd [5]: 129 nM

B4: CIRP-derived oligopeptide C23 (human CIRP aa 111-125) (peptide)
peptide: GRGFSRGGGDRGYGG
Kd [5]: 29.7 nM

B5
Kd [6]: 302 nM
Kd [7]: 53.7 nM
